For the series, the system named is T1, Cas13f v3 (v2+D160A&D642A) (synthetic construct).
T1 sequence: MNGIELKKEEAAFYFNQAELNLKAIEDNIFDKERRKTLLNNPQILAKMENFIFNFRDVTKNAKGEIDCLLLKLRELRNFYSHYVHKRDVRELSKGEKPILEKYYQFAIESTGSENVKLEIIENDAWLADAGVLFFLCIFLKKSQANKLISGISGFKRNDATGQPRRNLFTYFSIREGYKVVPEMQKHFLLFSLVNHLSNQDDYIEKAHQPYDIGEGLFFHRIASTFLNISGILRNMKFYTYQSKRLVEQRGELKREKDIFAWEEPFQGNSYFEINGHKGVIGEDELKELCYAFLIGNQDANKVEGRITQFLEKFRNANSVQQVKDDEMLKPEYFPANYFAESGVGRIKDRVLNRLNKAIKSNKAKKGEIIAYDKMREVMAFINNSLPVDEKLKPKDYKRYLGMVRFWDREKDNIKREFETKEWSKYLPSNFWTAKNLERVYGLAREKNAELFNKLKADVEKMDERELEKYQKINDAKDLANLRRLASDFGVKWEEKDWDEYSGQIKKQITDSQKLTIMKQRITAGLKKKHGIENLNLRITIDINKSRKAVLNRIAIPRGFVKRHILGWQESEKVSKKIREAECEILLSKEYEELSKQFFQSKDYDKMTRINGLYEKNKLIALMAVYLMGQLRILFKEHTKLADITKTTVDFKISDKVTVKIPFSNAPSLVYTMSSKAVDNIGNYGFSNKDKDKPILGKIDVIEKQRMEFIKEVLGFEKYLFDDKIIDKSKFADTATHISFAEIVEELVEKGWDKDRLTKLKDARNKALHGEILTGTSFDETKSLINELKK
Description: cell_activity. To be noted: HEK293T; non-targeting spacer control.

The substance “non-targeting gRNA (DR-spacer-DR) ; mCherry reporter mRNA” registered an activity (RFP MFI (normalization reference)) of 1.
